From paper PMC8283798 come the findings set out here.

pEC50: −log10 of the molar value.

For test [1], the target named is FcγRIIIa-V158 (high-affinity FcγIIIa receptor allele) (human) (UniProt P08637). Kind of test: ELISA. For orientation: In an ELISA, binding on a coated surface is turned into a signal by an enzyme label.
For test [2], the target named is FcγRIIIa-F158 (low-affinity FcγIIIa receptor allele) (human) (UniProt P08637). The experiment in a line: ELISA.

For orientation: pEC50 means the negative decadic logarithm of the EC50, by convention in mol/L. Read a low pEC50 as a large EC50. With “G2 (11), nonfucosylated Herceptin glycoform carrying the biantennary complex-type N-glycan (antibody)”, in test [1], the negative-log EC50 (pEC50) is 8.92. In test [2], “G2 (11), nonfucosylated Herceptin glycoform carrying the biantennary complex-type N-glycan (antibody; other documents disagree on this pair)” gave a pEC50 of 7.94.

Turning to “G2(Az)F (2), core 6-azido-fucosylated Herceptin carrying a complex-type N-glycan (antibody)”, the pEC50 in test [1] was 8.54. In test [2], “G2(Az)F (2), core 6-azido-fucosylated Herceptin carrying a complex-type N-glycan (antibody; other documents disagree on this pair)” showed a pEC50 of 7.89. “G2(NH2)F (3), core 6-amino-fucosylated Herceptin (antibody)” had a pEC50 in test [1] of 8.03. Substance “G2(NH2)F (3), core 6-amino-fucosylated Herceptin (antibody; other documents disagree on this pair)” gave a pEC50 in test [2] of 7.05. “G2(OH- triazol)F (4), core 6-triazole-fucosylated Herceptin (antibody)”: the negative-log EC50 (pEC50) in test [1] was 7.74. “G2(OH- triazol)F (4), core 6-triazole-fucosylated Herceptin (antibody; other documents disagree on this pair)” gave a pEC50 in test [2] of 7.09. Take “G2Ara (6), core D-arabinosylated Herceptin (antibody)”: the pEC50 in test [1] is 7.40. On to “G2Ara (6), core D-arabinosylated Herceptin (antibody; other documents disagree on this pair)”, for which the negative logarithm of the EC50 (pEC50) in test [2] is 5.84. In test [1], “G2F (1), core-fucosylated Herceptin glycoform carrying the biantennary complex-type N-glycan (antibody)” gave a pEC50 of 7.37.

With “G2F (1), core-fucosylated Herceptin glycoform carrying the biantennary complex-type N-glycan (antibody; other documents disagree on this pair)”, in test [2], the pEC50 was 5.80.

“G2Gal (5), core L-galactosylated Herceptin (antibody)”: the pEC50 in test [1] is 8.14. “G2Gal (5), core L-galactosylated Herceptin (antibody; other documents disagree on this pair)” showed a pEC50 in test [2] of 7.07.
